The values below come from US20220251241A1 (NGM BIOPHARMACEUTICALS, published 2022).

Assay [1] addresses human delta N-HTRA1 (amino acids 156-480 of SEQ ID NO:1) (human, UniProt Q92743 156-480). The experiment in a line: SPR (Biacore); antibody captured by anti-Fc, human delta N-HTRA1 injected; temperature of this table not stated. The protocol: (§1) The binding affinities of anti-HTRA1 antibodies to human HTRA1 were measured using a Biacore system (GE Healthcare Life Sciences). Briefly, anti-Fc antibody (Sigma-Aldrich) was immobilized on all four flow cells of a CMS chip using amine coupling reagents (GE Healthcare LifeSciences). Antibodies were captured on flow cells 2, 3, and 4 using flow cell 1 as a reference. Concentrations ranging from 3.3-10 nM of human delta N-HTRA1 were injected at a flow rate of 50 μL/min at 37° C. Kinetic data were collected over time and fit using the simultaneous global fit equation to yield affinity constants (KD values) for each antibody.
On the technique in general: In SPR one partner is held on a chip, and binding of the other changes the refractive index at the surface.

In assay [2] the target is T1, HTRA1 (construct not given) (Homo sapiens (Human), UniProt Q92743 23-480, limits assumed). The experiment in a line: cell-based or functional assay.
Assay [3] addresses T1, HTRA1 (construct not stated in the …). Nature of the assay: protease inhibition assay, H2-Opt peptide substrate (FRET); apparent Ki (Ki^app).
For assay [4] the target is unchanged. The experiment in a line: protease inhibition assay, casein substrate (EnzChek); apparent Ki (Ki^app). The source says: Two enzymatic assays were used to characterize HTRA1 protease activity and evaluate inhibitory activity of anti-HTRA1 antibodies. EnzChek® Protease Assay Kit (ThermoFisher Scientific) was used following the manufacturer's instructions. This kit contains casein protein that is heavily labeled with the pH-insensitive green-fluorescent BOPIPY® FL dye that results in almost total quenching of the conjugate's fluorescence. Protease-catalyzed hydrolysis of labeled casein releases highly fluorescent BODIPY® FL dye-labeled peptides. The concomitant increase in fluorescence is proportional to protease activity.
Antibodies identified in HTRA1 binding assays were tested for their ability to inhibit HTRA1 protease activity. The range of antibody concentrations was tested to establish a dose response curve and determine IC₅₀ values.

Assay [5] has the same target. The experiment in a line: SPR (Biacore). The protocol:
as §1
In order to determine whether a hz24F7.v2 variant, comprising one of the amino acid substitutions disclosed in Table 15, retains its HTRA1 binding capability, functional characterization was performed via an SPR assay as described herein and an HTRA1 enzyme assay.

Assay [6] shares this target. Nature of the assay: cell-based or functional assay. This is another data set of the same source.
For assay [7] the target is unchanged. The experiment in a line: cell-based or functional assay. This is another data set of the same source.
Assay [8] has the same target. Nature of the assay: cell-based or functional assay. This is another data set of the same source.
For assay [9] the target is unchanged. Nature of the assay: SPR (Biacore); affinity at baseline.

Residue numbers refer to the chain shown, from its start. Names may count otherwise.

Chain of human delta N-HTRA1 (amino acids 156-480 of SEQ ID NO:1) (Q92743 156-480, stated change not applied): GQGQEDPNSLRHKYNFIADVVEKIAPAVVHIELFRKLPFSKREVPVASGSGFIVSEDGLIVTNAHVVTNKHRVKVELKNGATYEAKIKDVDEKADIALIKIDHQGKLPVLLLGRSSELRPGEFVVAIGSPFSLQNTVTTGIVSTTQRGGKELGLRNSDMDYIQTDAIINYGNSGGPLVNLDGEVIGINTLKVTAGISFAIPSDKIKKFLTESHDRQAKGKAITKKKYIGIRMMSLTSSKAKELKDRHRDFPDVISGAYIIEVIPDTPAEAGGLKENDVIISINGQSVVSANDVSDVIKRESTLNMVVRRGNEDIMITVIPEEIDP
T1 sequence (Q92743 23-480 limits assumed): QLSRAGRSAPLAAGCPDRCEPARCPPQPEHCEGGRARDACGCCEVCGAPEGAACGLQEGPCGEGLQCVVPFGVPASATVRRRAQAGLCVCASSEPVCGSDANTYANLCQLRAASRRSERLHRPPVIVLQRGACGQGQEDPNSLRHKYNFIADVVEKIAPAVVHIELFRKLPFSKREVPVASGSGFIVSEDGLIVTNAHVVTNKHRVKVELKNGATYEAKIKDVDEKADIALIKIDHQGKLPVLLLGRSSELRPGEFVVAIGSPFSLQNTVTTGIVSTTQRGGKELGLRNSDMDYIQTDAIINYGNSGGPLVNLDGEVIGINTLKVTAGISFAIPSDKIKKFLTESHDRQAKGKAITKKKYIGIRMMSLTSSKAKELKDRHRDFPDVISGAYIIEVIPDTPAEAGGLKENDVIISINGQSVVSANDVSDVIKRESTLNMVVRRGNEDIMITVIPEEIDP

B1: antibody 55B12 (antibody, V domains shown)
VH: QVQLQQPGAELVKPGASVKLSCKASGYTFTNYWMHWVKQRPGQGLEWIGNIDPSDSETHYNQKFKDKATLAVDKSSSTAYMQLSSLTSEDSAVYYCAREDSSGYGAYWGQGTLVTVSA
VL: QIVLTQSPAIMSASPGEKVTMTCSASSSVNYMHWYQQKSGTSPKRWIYDTSKLASGVPDRFSGSGSGTSYSLTISSMEAEDAATYYCQQWSSHPLTFGAGTKLELK
notes: Mouse hybridoma monoclonal antibody
B1: in assay [1], the affinity, expressed as Kd, was 0.45 nM; the koff is 0.017 s⁻¹; the on-rate (kon) was found to be 3.8e+07 M⁻¹ s⁻¹. For the same molecule, in assay [2], the “IC50, Protease Assay-Casein substrate” value worked out at 0.13 nM and the “IC50, Protease Assay-H2-Opt peptide” value was 0.13 nM.

B2: antibody 9F8 (antibody, V domains shown)
VH: QVQLQQPGAELVRPGSSVKLSCKASGYAFTTYWMHWVKQRPIQGLEWIGNIDPSDSETHYNQKFRDKATLTVDKSSSTAYMQLSSLTSEDSAVYYCARDYGAFDVWGTGTTVTVSS
VL: QAVVTQESALTTSSGETVTLTCRSSTGAVTTRNFASWVQEKPDHLFTGLIGGTNNRAPGVPARFSGSLIGDKAALTITGAQTEDEAIYFCALWYSNLWVFGGGTKLTVL
notes: as for B1
In assay [1], B2 registered a Kd of 0.14 nM, a koff of 0.0044 s⁻¹ and a kon of 3e+07 M⁻¹ s⁻¹. Also, the Ki in assay [3] came out at 0.092 nM. In assay [2], the “IC50, Protease Assay-Casein substrate” value turned out to be 0.19 nM and the “IC50, Protease Assay-H2-Opt peptide” value was determined as 0.12 nM. Also, the Ki in assay [4] was found to be 0.035 nM.

B3: antibody 65G8 (antibody, V domains shown)
VH: QVQLQQSGPQLVRPGASVKISCKASGYSFTSYWMHWVKQRPGQGLEWIGMIDPSDSETRLNQKFKDKATLTIDKSSSTAYMQLSSPTSEDSAVYYCTRDYFDYWGQGTTLTVSS
VL: QIVLTQSPAIMSTSPGEKVTMTCSASSSVSYMYWYQQKPGSSPRLLIYDTSNLASGVPVRFSGSGSGTSYSLTISRMEAEDAATYYCQQWSSYPYTFGGGTKLEIK
notes: as for B1
On to B3, for which, in assay [1], the Kd stood at 0.42 nM, the koff was 0.003 s⁻¹ and the kon was 6.9e+06 M⁻¹ s⁻¹. In assay [2], the “IC50, Protease Assay-Casein substrate” value is 0.06 nM and the “IC50, Protease Assay-H2-Opt peptide” value was determined as 0.09 nM.

B4: hz24F7.v2 S91A (antibody, human IgG1, kappa, N297G, V domains shown)
VH: QVQLVQSGAEVKKPGASVKVSCKASGYTFTDYEMHWVRQAPGQRLEWMGAIDPETGGTAYNQKFKGRVTITADKSASTAYMELSSLRSEDTAVYYCTREGYSYEGGGYYFDYWGQGTLVTVSS
VL: DIQMTQSPSSLSASVGDRVTITCSVSSSVSYMYWYQQKPGKAPKLLIYDTSNLASGVPSRFSGSGSGTDFTFTISSLQPEDIATYYCQQWASYPTFGQGTKLEIKR
notes: hz24F7.v2 with a substitution in light chain CDR3
Take B4: in [5], binding was characterised by a dissociation constant (Kd) of 0.0465 nM, the koff came out at 0.000169 s⁻¹ and the kon is 3.63e+06 M⁻¹ s⁻¹.

B5: hz24F7.v2 S92Y (antibody, human IgG1, kappa, N297G, V domains shown)
VH: B4 VH
VL: B4 VL with A91S, S92Y
notes: as for B4
In the case of B5, the “IC50, HTRA1 enzyme assay” value in [6] stood at 0.097 nM. In addition, in assay [5], the Kd was found to be 0.0321 nM, the koff came to 0.000275 s⁻¹ and the kon was 8.56e+06 M⁻¹ s⁻¹.

B6: hz24F7.v2 S91L (antibody, human IgG1, kappa, N297G, V domains shown)
VH: B4 VH
VL: B4 VL with A91L
For the molecule B6, in assay [6], the “IC50, HTRA1 enzyme assay” value came to 0.084 nM. In assay [5], this molecule came in with a Kd of 0.0439 nM, a koff of 0.000161 s⁻¹ and a kon of 3.67e+06 M⁻¹ s⁻¹.

B7: hz24F7.v2 S92T (antibody, human IgG1, kappa, N297G, V domains shown)
VH: B4 VH
VL: B4 VL with A91S, S92T
notes: as for B4
For the molecule B7, the “IC50, HTRA1 enzyme assay” value in [6] was 0.098 nM. In addition, in assay [7], the “IC50, enzyme assay; sample stored pH 7.4, 40° C., 0 weeks” value came to 67.5 pM; the “IC50, enzyme assay; sample stored pH 7.4, 40° C., 2 weeks” value is 75.2 pM; the “IC50, enzyme assay; sample stored pH 7.4, 40° C., 4 weeks” value is 93.7 pM. In [5], this molecule showed a Kd of 0.02 nM, a koff of 0.000197 s⁻¹ and a kon of 9.81e+06 M⁻¹ s⁻¹.

B8: hz24F7.v2 S91T (antibody, human IgG1, kappa, N297G, V domains shown)
VH: B4 VH
VL: B4 VL with A91T
notes: as for B4
As for B8, in [5], the Kd came to 0.0266 nM, the koff was 0.000189 s⁻¹ and the kon worked out at 7.1e+06 M⁻¹ s⁻¹.

B9: hz24F7.v2 S91Y (antibody, human IgG1, kappa, N297G, V domains shown)
VH: B4 VH
VL: B4 VL with A91Y
notes: as for B4
In turn, B9 registered an IC50 at baseline in assay [8] of 0.07 nM. For the same molecule, the “IC50, HTRA1 enzyme assay” value in assay [6] came out at 0.07 nM. In addition, in assay [7], the “IC50, enzyme assay; sample stored pH 7.4, 40° C., 0 weeks” value came out at 43.4 pM; the “IC50, enzyme assay; sample stored pH 7.4, 40° C., 2 weeks” value worked out at 42 pM; the “IC50, enzyme assay; sample stored pH 7.4, 40° C., 4 weeks” value came out at 54.3 pM. Also, in assay [9], binding was characterised by a dissociation constant (Kd) of 0.0405 nM, the koff amounted to 0.000184 s⁻¹ and the kon was found to be 4.54e+06 M⁻¹ s⁻¹. In addition, in assay [5], the Kd was 0.0405 nM, the koff stood at 0.000184 s⁻¹ and the kon was found to be 4.54e+06 M⁻¹ s⁻¹.

B10: hz24F7.v2 S92D (antibody, human IgG1, kappa, N297G, V domains shown)
VH: B4 VH
VL: B4 VL with A91S, S92D
notes: as for B4
As to B10, the “IC50, HTRA1 enzyme assay” value in assay [6] is 0.067 nM. In assay [5], the Kd turned out to be 0.0249 nM, the koff was 0.000217 s⁻¹ and the kon stood at 8.7e+06 M⁻¹ s⁻¹.

Usually Kd stands for a measure of binding affinity in units of concentration. A higher Kd goes with a looser complex. In general, koff refers to a measure of how fast the partners let go of each other. Broadly, the kon is a measure of how fast the partners come together. Usually IC50 stands for the concentration that gives 50% inhibition. High values mean lower potency, low ones higher potency.
